Laboratory results as given in paper PMC4030845, “DeSUMOylation Controls Insulin Exocytosis in Response to Metabolic Signals” (Biomolecules, 2012).

Target: the molecule itself
Assay: immunoblot of cell lysates after SDS-PAGE (dimer band); INS-1 832/13 cells infected with Ad-SENP1, incubated in KRBH buffer with or without H2O2 (legend: 200 µM; methods: 1 mM) for 30 min at 37 °C; lysed in Cell-Lytic-M with DTT; 8% SDS-PAGE; blot with anti-SENP1 (C12)

B1: SENP1 (sentrin-specific SUMO protease 1) (enzyme, UniProt Q9P0U3 1-644, looked up)
chain: MDDIADRMRMDAGEVTLVNHNSVFKTHLLPQTGFPEDQLSLSDQQILSSRQGHLDRSFTCSTRSAAYNPSYYSDNPSSDSFLGSGDLRTFGQSANGQWRNSTPSSSSSLQKSRNSRSLYLETRKTSSGLSNSFAGKSNHHCHVSAYEKSFPIKPVPSPSWSGSCRRSLLSPKKTQRRHVSTAEETVQEEEREIYRQLLQMVTGKQFTIAKPTTHFPLHLSRCLSSSKNTLKDSLFKNGNSCASQIIGSDTSSSGSASILTNQEQLSHSVYSLSSYTPDVAFGSKDSGTLHHPHHHHSVPHQPDNLAASNTQSEGSDSVILLKVKDSQTPTPSSTFFQAELWIKELTSVYDSRARERLRQIEEQKALALQLQNQRLQEREHSVHDSVELHLRVPLEKEIPVTVVQETQKKGHKLTDSEDEFPEITEEMEKEIKNVFRNGNQDEVLSEAFRLTITRKDIQTLNHLNWLNDEIINFYMNMLMERSKEKGLPSVHAFNTFFFTKLKTAGYQAVKRWTKKVDVFSVDILLVPIHLGVHWCLAVVDFRKKNITYYDSMGGINNEACRILLQYLKQESIDKKRKEFDTNGWQLFSKKSQEIPQQMNGSDCGMFACKYADCITKDRPINFTQQHMPYFRKRMVWEILHRKLL
notes: The adenovirus co-expresses GFP to identify infected cells; also called Ad-SENP1
stoichiometry N: 2
